Results on 2 substances are retold here after patent US20190240295A1.

The target in experiment [1] is LRP1 (alpha2-macroglobulin receptor/CD91) receptor (BioMac) (UniProt Q07954). The experiment is described as follows: SPR (Biacore), LRP1 immobilized on CM4 chip; mean KD of lots A-C. (In general: SPR reads the build-up and loss of mass on a sensor chip optically.)
The target is the same in experiment [2]. Nature of the experiment: SPR (Biacore), LRP1 immobilized on CM4 chip; mean KD of lots D-F.
Experiment [3] concerns the target Plasma-derived VWF (pdVWF, Diagnostica Stago) (UniProt P04275). Nature of the experiment: SPR (Biacore), pdVWF immobilized on CM5 chip; mean KD of lots A-C.
For experiment [4] the target is unchanged. The experiment is described as follows: SPR (Biacore), pdVWF immobilized on CM5 chip; mean KD of lots D-F.
Experiment [5] has the same target. Nature of the experiment: SPR (Biacore), pdVWF immobilized on CM5 chip; mean KD of lots G-I.
Experiment [6] has as its target LRP1 (alpha2-macroglobulin receptor/CD91) receptor (BioMac) (UniProt Q07954). Nature of the experiment: SPR (Biacore), LRP1 immobilized on CM4 chip; mean KD of lots K-N.
The target of experiment [7] is Plasma-derived VWF (pdVWF, Diagnostica Stago) (UniProt P04275). The experiment is described as follows: SPR (Biacore), pdVWF immobilized on CM5 chip; mean KD of lots K-N.

Chain of UniProt Q07954 (Q07954 20-4544 limits assumed): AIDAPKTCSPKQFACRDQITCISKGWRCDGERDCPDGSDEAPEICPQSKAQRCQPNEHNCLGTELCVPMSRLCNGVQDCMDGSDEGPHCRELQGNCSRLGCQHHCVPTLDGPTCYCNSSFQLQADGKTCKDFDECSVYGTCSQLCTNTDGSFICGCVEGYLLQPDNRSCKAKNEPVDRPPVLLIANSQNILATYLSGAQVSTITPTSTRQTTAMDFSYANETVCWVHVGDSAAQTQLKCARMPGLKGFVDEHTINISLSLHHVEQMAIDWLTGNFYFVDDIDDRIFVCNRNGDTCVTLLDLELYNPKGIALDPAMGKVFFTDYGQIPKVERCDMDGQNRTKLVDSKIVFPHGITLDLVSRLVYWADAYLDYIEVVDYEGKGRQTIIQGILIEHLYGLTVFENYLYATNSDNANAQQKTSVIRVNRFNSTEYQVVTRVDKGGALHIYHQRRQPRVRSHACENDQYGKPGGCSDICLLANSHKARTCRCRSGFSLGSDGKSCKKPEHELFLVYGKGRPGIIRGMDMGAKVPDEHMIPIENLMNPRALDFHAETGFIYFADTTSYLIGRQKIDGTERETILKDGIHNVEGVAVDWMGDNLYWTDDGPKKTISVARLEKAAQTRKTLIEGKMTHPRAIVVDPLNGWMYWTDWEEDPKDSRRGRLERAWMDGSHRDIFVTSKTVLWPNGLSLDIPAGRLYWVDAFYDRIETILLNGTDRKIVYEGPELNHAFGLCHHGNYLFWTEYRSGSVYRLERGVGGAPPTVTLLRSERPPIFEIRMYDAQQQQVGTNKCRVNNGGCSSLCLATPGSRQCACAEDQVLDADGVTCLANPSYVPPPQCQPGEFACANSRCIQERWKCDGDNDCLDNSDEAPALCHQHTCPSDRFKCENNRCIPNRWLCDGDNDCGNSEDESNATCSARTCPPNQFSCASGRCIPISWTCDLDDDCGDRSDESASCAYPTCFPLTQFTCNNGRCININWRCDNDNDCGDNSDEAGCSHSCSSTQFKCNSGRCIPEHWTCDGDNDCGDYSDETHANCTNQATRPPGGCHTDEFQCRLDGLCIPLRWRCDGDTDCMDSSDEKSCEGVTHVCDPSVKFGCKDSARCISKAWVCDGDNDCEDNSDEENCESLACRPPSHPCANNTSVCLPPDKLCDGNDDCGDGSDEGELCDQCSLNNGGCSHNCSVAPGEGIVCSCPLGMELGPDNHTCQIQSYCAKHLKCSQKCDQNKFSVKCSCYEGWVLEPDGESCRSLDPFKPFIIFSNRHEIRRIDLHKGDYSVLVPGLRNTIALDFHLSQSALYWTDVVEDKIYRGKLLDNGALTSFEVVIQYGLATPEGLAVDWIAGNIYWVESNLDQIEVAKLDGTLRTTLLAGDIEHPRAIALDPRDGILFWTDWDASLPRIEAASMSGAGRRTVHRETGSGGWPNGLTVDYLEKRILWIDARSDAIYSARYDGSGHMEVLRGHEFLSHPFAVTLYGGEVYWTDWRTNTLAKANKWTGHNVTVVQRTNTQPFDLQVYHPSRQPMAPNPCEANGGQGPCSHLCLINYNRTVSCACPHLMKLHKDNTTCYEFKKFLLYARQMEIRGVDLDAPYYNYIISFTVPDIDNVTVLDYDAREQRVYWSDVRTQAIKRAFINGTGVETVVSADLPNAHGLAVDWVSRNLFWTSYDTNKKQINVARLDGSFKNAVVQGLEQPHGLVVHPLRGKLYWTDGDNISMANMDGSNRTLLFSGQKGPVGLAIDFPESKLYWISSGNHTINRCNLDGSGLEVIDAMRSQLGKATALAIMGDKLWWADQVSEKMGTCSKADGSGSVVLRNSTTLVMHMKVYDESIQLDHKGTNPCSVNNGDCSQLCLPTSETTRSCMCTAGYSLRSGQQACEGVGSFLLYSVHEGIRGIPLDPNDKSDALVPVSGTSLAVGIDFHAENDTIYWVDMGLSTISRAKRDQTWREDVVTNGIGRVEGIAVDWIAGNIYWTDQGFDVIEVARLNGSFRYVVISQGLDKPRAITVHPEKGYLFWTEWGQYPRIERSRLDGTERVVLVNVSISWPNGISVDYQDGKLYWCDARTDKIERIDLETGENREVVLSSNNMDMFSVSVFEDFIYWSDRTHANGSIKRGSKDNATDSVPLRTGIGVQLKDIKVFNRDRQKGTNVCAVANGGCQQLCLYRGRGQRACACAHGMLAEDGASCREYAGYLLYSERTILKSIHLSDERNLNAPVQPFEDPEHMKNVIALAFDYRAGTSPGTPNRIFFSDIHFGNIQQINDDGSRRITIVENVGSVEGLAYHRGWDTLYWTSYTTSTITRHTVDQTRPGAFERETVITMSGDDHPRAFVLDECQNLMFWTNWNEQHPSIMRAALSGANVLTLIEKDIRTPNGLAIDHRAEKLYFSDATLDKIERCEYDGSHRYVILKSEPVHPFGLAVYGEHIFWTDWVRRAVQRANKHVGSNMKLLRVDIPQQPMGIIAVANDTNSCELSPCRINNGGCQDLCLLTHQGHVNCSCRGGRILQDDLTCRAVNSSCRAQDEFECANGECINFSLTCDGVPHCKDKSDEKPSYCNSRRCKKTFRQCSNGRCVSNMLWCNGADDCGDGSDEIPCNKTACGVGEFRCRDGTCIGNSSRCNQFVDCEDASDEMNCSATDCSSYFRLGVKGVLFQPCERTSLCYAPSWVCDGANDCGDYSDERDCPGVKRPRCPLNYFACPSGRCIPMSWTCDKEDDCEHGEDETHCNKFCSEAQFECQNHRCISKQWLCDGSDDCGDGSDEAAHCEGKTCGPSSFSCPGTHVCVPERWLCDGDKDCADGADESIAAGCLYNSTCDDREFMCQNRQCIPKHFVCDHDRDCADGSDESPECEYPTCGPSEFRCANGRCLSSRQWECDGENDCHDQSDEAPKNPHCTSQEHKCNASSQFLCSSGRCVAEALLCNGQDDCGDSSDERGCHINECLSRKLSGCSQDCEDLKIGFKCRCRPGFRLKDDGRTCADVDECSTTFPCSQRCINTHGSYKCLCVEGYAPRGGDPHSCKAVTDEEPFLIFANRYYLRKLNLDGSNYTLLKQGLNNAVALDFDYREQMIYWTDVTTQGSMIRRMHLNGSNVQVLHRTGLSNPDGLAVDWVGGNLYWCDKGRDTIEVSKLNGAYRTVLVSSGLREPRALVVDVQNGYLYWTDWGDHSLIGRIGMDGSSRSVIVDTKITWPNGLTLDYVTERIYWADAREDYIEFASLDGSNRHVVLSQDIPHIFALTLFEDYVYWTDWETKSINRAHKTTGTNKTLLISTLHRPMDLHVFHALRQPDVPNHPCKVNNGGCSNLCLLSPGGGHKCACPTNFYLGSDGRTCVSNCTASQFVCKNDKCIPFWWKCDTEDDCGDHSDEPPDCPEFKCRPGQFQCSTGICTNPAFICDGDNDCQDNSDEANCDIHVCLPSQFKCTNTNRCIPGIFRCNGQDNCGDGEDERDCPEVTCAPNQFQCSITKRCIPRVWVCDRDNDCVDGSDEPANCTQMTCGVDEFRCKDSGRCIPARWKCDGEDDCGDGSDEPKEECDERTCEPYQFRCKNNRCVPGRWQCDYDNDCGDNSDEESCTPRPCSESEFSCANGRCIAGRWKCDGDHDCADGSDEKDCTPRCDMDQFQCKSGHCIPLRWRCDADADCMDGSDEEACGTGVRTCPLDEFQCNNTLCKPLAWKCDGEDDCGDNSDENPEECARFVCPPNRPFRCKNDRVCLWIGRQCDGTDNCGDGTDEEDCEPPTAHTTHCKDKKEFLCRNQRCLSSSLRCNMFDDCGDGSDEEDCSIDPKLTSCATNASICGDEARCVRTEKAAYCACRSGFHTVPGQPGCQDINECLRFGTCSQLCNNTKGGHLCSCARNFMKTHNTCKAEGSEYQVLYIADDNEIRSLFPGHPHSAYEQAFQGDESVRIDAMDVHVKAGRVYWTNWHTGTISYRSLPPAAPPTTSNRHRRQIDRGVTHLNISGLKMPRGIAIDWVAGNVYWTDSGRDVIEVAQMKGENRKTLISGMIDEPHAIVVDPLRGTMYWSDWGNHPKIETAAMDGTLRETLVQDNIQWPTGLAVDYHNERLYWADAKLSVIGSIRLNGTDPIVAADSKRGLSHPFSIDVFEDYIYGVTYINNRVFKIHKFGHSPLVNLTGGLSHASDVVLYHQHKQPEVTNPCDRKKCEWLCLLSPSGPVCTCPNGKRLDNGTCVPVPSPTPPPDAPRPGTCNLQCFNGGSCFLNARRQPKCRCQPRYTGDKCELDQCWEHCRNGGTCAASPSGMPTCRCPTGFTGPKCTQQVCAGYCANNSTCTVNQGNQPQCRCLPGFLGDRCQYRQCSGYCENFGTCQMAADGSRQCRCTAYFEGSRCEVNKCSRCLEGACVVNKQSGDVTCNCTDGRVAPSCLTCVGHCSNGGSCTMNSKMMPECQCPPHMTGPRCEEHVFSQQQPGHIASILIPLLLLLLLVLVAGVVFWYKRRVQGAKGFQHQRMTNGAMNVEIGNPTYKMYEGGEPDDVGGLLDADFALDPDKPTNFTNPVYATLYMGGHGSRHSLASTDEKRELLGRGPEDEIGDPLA

What is called Kd is the equilibrium constant for the complex coming apart. Read a high Kd as weaker binding. With “PSA-rFVIII (polysialylated recombinant Factor VIII) (from UniProt P00451 20-2351)”, the Kd is 19 nM in experiment [1]; 32 nM in experiment [2]; 0.28 nM in experiment [3]; 0.28 nM in experiment [4]; 0.31 nM in experiment [5].
Regarding “rebuffered rFVIII (unmodified recombinant Factor VIII) (from UniProt P00451 20-2351)”, the Kd was 22.3 nM in experiment [6] and 0.32 nM in experiment [7].
